Tests used:
[1] = biological target: SARS-CoV-2 B.1.1.7 N501Y (Alpha) RBD (SARS-CoV-2) (UniProt P0DTC2); test: Octet BLI single point, monovalent
[2] = biological target: SARS-CoV-2 L452R RBD (Epsilon) (SARS-CoV-2) (UniProt P0DTC2); test: Octet BLI single point, monovalent

Substance | Kd [1] | Kd [2]
RGN10933 (antibody) | 6.57 nM | 9.52 nM
RGN10987 (antibody) | 15.1 nM | 17.4 nM
